Legend:
LAMP1::histag (human) [1] = target: LAMP1::histag (human) (UniProt P11279); experiment: SPR (BIAcore 2000)
LAMP1::histag (human) [2] = target: LAMP1::histag (human) (UniProt P11279); experiment: SPR (BIAcore 2000), mAb captured by anti-Fc, LAMP1 injected 1 to 256 nM
LAMP1::histag (human) [3] = target: LAMP1::histag (human) (UniProt P11279); experiment: competition ELISA; H4A3 0.06 mg/L read with anti-mouse IgG; competitor chMAb1 15 mg/L
LAMP1::histag (human) [4] = target: LAMP1::histag (human) (UniProt P11279); experiment: competition ELISA; H4A3 0.06 mg/L read with anti-mouse IgG; competitor chMAb2 15 mg/L
LAMP1::histag (human) [5] = target: LAMP1::histag (human) (UniProt P11279); experiment: competition ELISA; H4A3 0.06 mg/L read with anti-mouse IgG; competitor chMAb3 15 mg/L

Sequence of LAMP1::histag (human) (P11279 other isoform, or with tags, fused parts or gaps): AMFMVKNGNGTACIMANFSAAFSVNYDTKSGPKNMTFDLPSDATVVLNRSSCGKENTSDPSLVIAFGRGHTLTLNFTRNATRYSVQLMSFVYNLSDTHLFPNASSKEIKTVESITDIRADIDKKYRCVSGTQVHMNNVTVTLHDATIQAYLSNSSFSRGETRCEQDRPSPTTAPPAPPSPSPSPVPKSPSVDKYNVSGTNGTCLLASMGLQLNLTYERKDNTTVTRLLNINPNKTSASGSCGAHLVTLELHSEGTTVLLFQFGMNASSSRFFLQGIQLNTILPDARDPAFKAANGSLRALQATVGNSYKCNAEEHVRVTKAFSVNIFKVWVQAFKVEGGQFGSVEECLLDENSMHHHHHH

**Q.** For H4A3 (BioLegend 328602) (antibody), which Kd (LAMP1::histag (human) [1]) is on record?
**A.** Its Kd is 100 nM.

**Q.** What about the Kd (LAMP1::histag (human) [2]) of the same substance?
**A.** The Kd was 105 nM.

**Q.** And the koff (LAMP1::histag (human) [2])?
**A.** Its koff is 0.00609 s⁻¹.

**Q.** And the kon (LAMP1::histag (human) [2])?
**A.** The kon was 58000 M⁻¹ s⁻¹.

**Q.** And the percentage of signal compared to mAb control alone (LAMP1::histag (human) [3])?
**A.** The percentage of signal compared to mAb control alone was 98%.

**Q.** What about the percentage of signal compared to mAb control alone (LAMP1::histag (human) [4]) of the same substance?
**A.** Its percentage of signal compared to mAb control alone is 57%.

**Q.** What about the percentage of signal compared to mAb control alone (LAMP1::histag (human) [5]) of the same substance?
**A.** Its percentage of signal compared to mAb control alone is 11%.

Source: patent US20180142032A1
